Assay results published in patent US20230118307A1, “THERAPEUTIC USE OF LONG-ACTING CONJUGATE OF TRIPLE AGONIST HAVING ACTIVITIES TO ALL OF GLUCAGON/GLP-1/GIP RECEPTORS FOR LUNG DISEASE” (HANMI PHARM. CO., LTD., priority 2020, published 2023).
Positions of bridges follow the written chain, without caps; N, C: chain ends. Non-standard residues stand in square brackets, D forms with d. No end group written: not given here. *: point of attachment. Acetyl(2-(4-imidazolyl)) = O=C(Cc1c[nH]cn1)*; Aib = CC(C)(N)C(=O)O

T1: human GIP receptor (human, UniProt P48546 22-466)
T1 sequence (looked up): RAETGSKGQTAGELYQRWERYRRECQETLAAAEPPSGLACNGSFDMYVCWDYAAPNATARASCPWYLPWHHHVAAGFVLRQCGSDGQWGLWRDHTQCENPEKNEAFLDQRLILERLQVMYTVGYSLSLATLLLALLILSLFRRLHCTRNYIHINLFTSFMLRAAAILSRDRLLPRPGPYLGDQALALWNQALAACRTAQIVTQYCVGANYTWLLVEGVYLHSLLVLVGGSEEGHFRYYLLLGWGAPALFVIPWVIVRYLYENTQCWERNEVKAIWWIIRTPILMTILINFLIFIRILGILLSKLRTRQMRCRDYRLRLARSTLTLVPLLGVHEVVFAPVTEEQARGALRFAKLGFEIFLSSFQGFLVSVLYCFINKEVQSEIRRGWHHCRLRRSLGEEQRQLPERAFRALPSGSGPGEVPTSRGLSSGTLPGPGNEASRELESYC


target: human GCG receptor (human, UniProt P47871 26-477); assay: cell-based or functional assay
Sequence (P47871 26-477): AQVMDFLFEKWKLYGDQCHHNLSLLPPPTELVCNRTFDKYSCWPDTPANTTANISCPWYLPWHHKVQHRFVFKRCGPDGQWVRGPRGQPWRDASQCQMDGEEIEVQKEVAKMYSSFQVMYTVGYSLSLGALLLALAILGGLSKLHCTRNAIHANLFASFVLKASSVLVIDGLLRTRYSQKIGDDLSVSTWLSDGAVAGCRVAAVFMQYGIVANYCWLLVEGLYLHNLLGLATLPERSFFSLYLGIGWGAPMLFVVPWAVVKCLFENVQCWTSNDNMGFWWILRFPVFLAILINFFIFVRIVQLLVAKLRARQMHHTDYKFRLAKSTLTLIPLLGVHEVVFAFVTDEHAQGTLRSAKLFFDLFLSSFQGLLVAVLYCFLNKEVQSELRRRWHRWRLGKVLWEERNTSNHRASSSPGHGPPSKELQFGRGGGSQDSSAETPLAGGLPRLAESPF

Row | Binder | In vitro Activity Compared to Native Peptide (%) vs. Glucagon [%]
1 | [Acetyl(2-(4-imidazolyl))][Aib]QGTFTSDYSKYLDECRAKEFVQWLLDHHPSSGQPPPS (bridge 16-20) [triple agonist of SEQ ID NO: 73] | 5.4
2 | Y[Aib]QGTFTSDYSKCLDEKRAKDFVQWLLDHHPSSGQPPPS (bridge 16-20) [triple agonist of SEQ ID NO: 70] | 71.3
3 | H[Aib]QGTFTSDVSKYLDGQAAQEFVAWLLKGC [triple agonist of SEQ ID NO: 8] | 0.1
4 | Y[Aib]QGTFTSDYSKYLDERACKDFVQWLLDHHPSSGQPPPS (bridge 16-20) [triple agonist of SEQ ID NO: 71] | 12.7
5 | H[Aib]QGTFTSDYSKCLDEKRAKEFVQWLLDHHPSSGQPPPS (bridge 16-20) [triple agonist of SEQ ID NO: 65] | 25.2
6 | Y[Aib]QGTFTSDYSKYLDEKAAKDFVQWLLDHHPSSGQPPPSC (bridge 16-20) [triple agonist of SEQ ID NO: 77] | 12.2
7 | [Acetyl(2-(4-imidazolyl))][Aib]QGTFTSDYSKYLDEKRQKEFVQWLLNTC (bridge 16-20) [triple agonist of SEQ ID NO: 81] | 0.3
8 | [Acetyl(2-(4-imidazolyl))][Aib]QGTFTSDYSKCLDEKRAKEFVQWLLDHHPSSGQPPPS (bridge 16-20) [triple agonist of SEQ ID NO: 74] | 0.9
9 | H[Aib]EGTFTSDYSIAMDEIHQKDFVDWLLAEKC (bridge 16-20) [triple agonist of SEQ ID NO: 80] | 0
10 | Y[Aib]QGTFTSDYSKYLDECAAKDFVQWLLDHHPSSGQPPPS (bridge 16-20) [triple agonist of SEQ ID NO: 67] | 46.2
11 | Y[Aib]QGTFTSDYSKCLDERAAKEFVQWLLDHHPSSGQPPPS (bridge 16-20) [triple agonist of SEQ ID NO: 69] | 9.6
12 | Y[Aib]QGTFTSDCSKYLDERAAKDFVQWLLDHHPSSGQPPPS (bridge 16-20) [triple agonist of SEQ ID NO: 72] | 1
13 | {Acetyl(2-(4-imidazolyl))}-[Aib]QGTFTSDKSKYLDERAAQDFVQWLLDGGPSSGAPPPS (ends and bridges not checked) [triple agonist of SEQ ID NO: 62] | < 0.1
14 | H[Aib]EGTFTSDYSIAMDEIHQKDFVNWLLAQKC (bridge 16-20) [triple agonist of SEQ ID NO: 79] | 4.9
15 | H[Aib]QGTFTSDVSKYLDGQAAKEFVAWLLKGC [triple agonist of SEQ ID NO: 7] | < 0.1
16 | Y[Aib]QGTFTSDYSKCLDEKAAKEFVQWLLDHHPSSGQPPPS (bridge 16-20) [triple agonist of SEQ ID NO: 68] | 8.8
17 | Y[Aib]QGTFTSDYSKYLDECRAKDFVQWLLDHHPSSGQPPPS (bridge 16-20) [triple agonist of SEQ ID NO: 66] | 172
18 | {Acetyl(2-(4-imidazolyl))}-[Aib]QGTFTSDYSIAMDEIACKDFVNWLLNTK (bridge 15-19) [triple agonist of SEQ ID NO: 61] | < 0.1
19 | Y[Aib]QGTFTSDYSKYLDEKRAKDFVQWLLDHHPSSGQPPPSC (bridge 16-20) [triple agonist of SEQ ID NO: 76] | 47.6
20 | {Acetyl(2-(4-imidazolyl))}-[Aib]QGTFTSDCSKYLDERAAQDFVQWLLDGGPSSGAPPPS (ends and bridges not checked) [triple agonist of SEQ ID NO: 63] | < 0.1
21 | Y[Aib]QGTFTSDYSKYLDEKAAKEFVQWLLDHHPSSGQPPPSC (bridge 16-20) [triple agonist of SEQ ID NO: 75] | 8.5
22 | H[Aib]QGTFTSDYSKYLDEKRQKEFVQWLLDTKC (bridge 16-20) [triple agonist of SEQ ID NO: 78] | 14
23 | Y[Aib]QGTFTSDYSKYLDECAAKEFVQWLLDHHPSSGQPPPS (bridge 16-20) [triple agonist of SEQ ID NO: 64] | 60.1

target: human GLP-1 receptor (human, UniProt P43220 24-463); assay: cell-based or functional assay

Row | Binder | In vitro Activity Compared to Native Peptide (%) vs. GLP-1 [%]
24 | [Acetyl(2-(4-imidazolyl))][Aib]QGTFTSDYSKYLDECRAKEFVQWLLDHHPSSGQPPPS (bridge 16-20) [triple agonist of SEQ ID NO: 73] | 22.6
25 | Y[Aib]QGTFTSDYSKCLDEKRAKDFVQWLLDHHPSSGQPPPS (bridge 16-20) [triple agonist of SEQ ID NO: 70] | 15.1
26 | H[Aib]QGTFTSDVSKYLDGQAAQEFVAWLLKGC [triple agonist of SEQ ID NO: 8] | 14.2
27 | Y[Aib]QGTFTSDYSKYLDERACKDFVQWLLDHHPSSGQPPPS (bridge 16-20) [triple agonist of SEQ ID NO: 71] | 90.1
28 | H[Aib]QGTFTSDYSKCLDEKRAKEFVQWLLDHHPSSGQPPPS (bridge 16-20) [triple agonist of SEQ ID NO: 65] | 95.4
29 | Y[Aib]QGTFTSDYSKYLDEKAAKDFVQWLLDHHPSSGQPPPSC (bridge 16-20) [triple agonist of SEQ ID NO: 77] | 38.7
30 | [Acetyl(2-(4-imidazolyl))][Aib]QGTFTSDYSKYLDEKRQKEFVQWLLNTC (bridge 16-20) [triple agonist of SEQ ID NO: 81] | 7.8
31 | [Acetyl(2-(4-imidazolyl))][Aib]QGTFTSDYSKCLDEKRAKEFVQWLLDHHPSSGQPPPS (bridge 16-20) [triple agonist of SEQ ID NO: 74] | 12.9
32 | H[Aib]EGTFTSDYSIAMDEIHQKDFVDWLLAEKC (bridge 16-20) [triple agonist of SEQ ID NO: 80] | 8.1
33 | Y[Aib]QGTFTSDYSKYLDECAAKDFVQWLLDHHPSSGQPPPS (bridge 16-20) [triple agonist of SEQ ID NO: 67] | 28.5
34 | Y[Aib]QGTFTSDYSKCLDERAAKEFVQWLLDHHPSSGQPPPS (bridge 16-20) [triple agonist of SEQ ID NO: 69] | 24.3
35 | Y[Aib]QGTFTSDCSKYLDERAAKDFVQWLLDHHPSSGQPPPS (bridge 16-20) [triple agonist of SEQ ID NO: 72] | 11.5
36 | {Acetyl(2-(4-imidazolyl))}-[Aib]QGTFTSDKSKYLDERAAQDFVQWLLDGGPSSGAPPPS (ends and bridges not checked) [triple agonist of SEQ ID NO: 62] | 5.2
37 | H[Aib]EGTFTSDYSIAMDEIHQKDFVNWLLAQKC (bridge 16-20) [triple agonist of SEQ ID NO: 79] | 41.5
38 | H[Aib]QGTFTSDVSKYLDGQAAKEFVAWLLKGC [triple agonist of SEQ ID NO: 7] | 13.7
39 | Y[Aib]QGTFTSDYSKCLDEKAAKEFVQWLLDHHPSSGQPPPS (bridge 16-20) [triple agonist of SEQ ID NO: 68] | 27.9
40 | Y[Aib]QGTFTSDYSKYLDECRAKDFVQWLLDHHPSSGQPPPS (bridge 16-20) [triple agonist of SEQ ID NO: 66] | 15.8
41 | {Acetyl(2-(4-imidazolyl))}-[Aib]QGTFTSDYSIAMDEIACKDFVNWLLNTK (bridge 15-19) [triple agonist of SEQ ID NO: 61] | 59.8
42 | Y[Aib]QGTFTSDYSKYLDEKRAKDFVQWLLDHHPSSGQPPPSC (bridge 16-20) [triple agonist of SEQ ID NO: 76] | 10.3
43 | {Acetyl(2-(4-imidazolyl))}-[Aib]QGTFTSDCSKYLDERAAQDFVQWLLDGGPSSGAPPPS (ends and bridges not checked) [triple agonist of SEQ ID NO: 63] | 15.3
44 | Y[Aib]QGTFTSDYSKYLDEKAAKEFVQWLLDHHPSSGQPPPSC (bridge 16-20) [triple agonist of SEQ ID NO: 75] | 35.1
45 | H[Aib]QGTFTSDYSKYLDEKRQKEFVQWLLDTKC (bridge 16-20) [triple agonist of SEQ ID NO: 78] | 51
46 | Y[Aib]QGTFTSDYSKYLDECAAKEFVQWLLDHHPSSGQPPPS (bridge 16-20) [triple agonist of SEQ ID NO: 64] | 64.6

target: T1, human GIP receptor; assay: cell-based or functional assay

Row | Binder | In vitro Activity Compared to Native Peptide (%) vs. GIP [%]
47 | [Acetyl(2-(4-imidazolyl))][Aib]QGTFTSDYSKYLDECRAKEFVQWLLDHHPSSGQPPPS (bridge 16-20) [triple agonist of SEQ ID NO: 73] | 3
48 | Y[Aib]QGTFTSDYSKCLDEKRAKDFVQWLLDHHPSSGQPPPS (bridge 16-20) [triple agonist of SEQ ID NO: 70] | 64.4
49 | H[Aib]QGTFTSDVSKYLDGQAAQEFVAWLLKGC [triple agonist of SEQ ID NO: 8] | < 0.1
50 | Y[Aib]QGTFTSDYSKYLDERACKDFVQWLLDHHPSSGQPPPS (bridge 16-20) [triple agonist of SEQ ID NO: 71] | 94.7
51 | H[Aib]QGTFTSDYSKCLDEKRAKEFVQWLLDHHPSSGQPPPS (bridge 16-20) [triple agonist of SEQ ID NO: 65] | 11.6
52 | Y[Aib]QGTFTSDYSKYLDEKAAKDFVQWLLDHHPSSGQPPPSC (bridge 16-20) [triple agonist of SEQ ID NO: 77] | 35.5
53 | [Acetyl(2-(4-imidazolyl))][Aib]QGTFTSDYSKYLDEKRQKEFVQWLLNTC (bridge 16-20) [triple agonist of SEQ ID NO: 81] | < 0.1
54 | [Acetyl(2-(4-imidazolyl))][Aib]QGTFTSDYSKCLDEKRAKEFVQWLLDHHPSSGQPPPS (bridge 16-20) [triple agonist of SEQ ID NO: 74] | 1
55 | H[Aib]EGTFTSDYSIAMDEIHQKDFVDWLLAEKC (bridge 16-20) [triple agonist of SEQ ID NO: 80] | 0.1
56 | Y[Aib]QGTFTSDYSKYLDECAAKDFVQWLLDHHPSSGQPPPS (bridge 16-20) [triple agonist of SEQ ID NO: 67] | 39.8
57 | Y[Aib]QGTFTSDYSKCLDERAAKEFVQWLLDHHPSSGQPPPS (bridge 16-20) [triple agonist of SEQ ID NO: 69] | 62.8
58 | Y[Aib]QGTFTSDCSKYLDERAAKDFVQWLLDHHPSSGQPPPS (bridge 16-20) [triple agonist of SEQ ID NO: 72] | 1.6
59 | {Acetyl(2-(4-imidazolyl))}-[Aib]QGTFTSDKSKYLDERAAQDFVQWLLDGGPSSGAPPPS (ends and bridges not checked) [triple agonist of SEQ ID NO: 62] | < 0.1
60 | H[Aib]EGTFTSDYSIAMDEIHQKDFVNWLLAQKC (bridge 16-20) [triple agonist of SEQ ID NO: 79] | 1.4
61 | H[Aib]QGTFTSDVSKYLDGQAAKEFVAWLLKGC [triple agonist of SEQ ID NO: 7] | < 0.1
62 | Y[Aib]QGTFTSDYSKCLDEKAAKEFVQWLLDHHPSSGQPPPS (bridge 16-20) [triple agonist of SEQ ID NO: 68] | 107
63 | Y[Aib]QGTFTSDYSKYLDECRAKDFVQWLLDHHPSSGQPPPS (bridge 16-20) [triple agonist of SEQ ID NO: 66] | 17.2
64 | {Acetyl(2-(4-imidazolyl))}-[Aib]QGTFTSDYSIAMDEIACKDFVNWLLNTK (bridge 15-19) [triple agonist of SEQ ID NO: 61] | 2.8
65 | Y[Aib]QGTFTSDYSKYLDEKRAKDFVQWLLDHHPSSGQPPPSC (bridge 16-20) [triple agonist of SEQ ID NO: 76] | 11.7
66 | {Acetyl(2-(4-imidazolyl))}-[Aib]QGTFTSDCSKYLDERAAQDFVQWLLDGGPSSGAPPPS (ends and bridges not checked) [triple agonist of SEQ ID NO: 63] | < 0.1
67 | Y[Aib]QGTFTSDYSKYLDEKAAKEFVQWLLDHHPSSGQPPPSC (bridge 16-20) [triple agonist of SEQ ID NO: 75] | 18
68 | H[Aib]QGTFTSDYSKYLDEKRQKEFVQWLLDTKC (bridge 16-20) [triple agonist of SEQ ID NO: 78] | 0.12
69 | Y[Aib]QGTFTSDYSKYLDECAAKEFVQWLLDHHPSSGQPPPS (bridge 16-20) [triple agonist of SEQ ID NO: 64] | 92.9
